Experimental data: patent US10772972B2, “Anti-STEAP2 antibody drug conjugates, and compositions and uses thereof” (Regeneron Pharmaceuticals, Inc., priority 2016, dated 2020)

Tests used:
[1] = test system: Raji cells (STEAP2 negative); assay: FACS binding to STEAP2-negative Raji cells; conditions: human-Fc antibodies
Experimental: (§1) The ability of anti-STEAP2 antibodies to selectively bind to human six-transmembrane epithelial antigen of prostate 2 (STEAP2) endogenously expressing cell lines was determined via FACS analysis.
(§2) Briefly, 1×10^5 cells were incubated with 10 μg/ml of anti STEAP2 antibodies, or isotype control antibodies for 30 min on ice in antibody dilution buffer. Following one wash with antibody dilution buffer, cells were incubated with 10 μg/ml of PE conjugated anti-human or anti mouse Fc secondary antibodies for 30 min on ice. Following one additional wash, samples were incubated with Cytofix (1% formaldehyde) for 20 minutes. After one final wash, samples were filtered through a Pall 96 well filtration block, run on a Hypercyt® cytometer and analyzed in ForeCyt™ (IntelliCyt, Albuquerque, N. Mex.). Mean fluorescence intensities (MFI) were expressed as fold change above unstained levels (background). The average fold above background at antibody concentrations of 100-300 nM were determined. For cell binding EC50 determinations, mAb concentrations ranged from 300 nM to […] and EC50 values were determined from a four-parameter logistic equation over a 12-point response curve (GraphPad Prism).

[2] = test system: FADU cells (STEAP2 negative); assay: FACS binding to STEAP2-negative FADU cells; conditions: human-Fc antibodies
Experimental: as §1, §2

hSTEAP2 fused to GFP = molecular target: T1, hSTEAP2 fused to GFP (Homo sapiens, UniProt Q8NFT2); assay: Specificity: binding to HEK293 cells transfected with hSTEAP2-GFP; set-up: key: Wells with GFP positive cells that bound anti STEAP2 antibodies were scored as positive (+); those that did not bind anti STEAP2 antibodies were scored as negative (−); conditions: transient transfection, 48 h
T1 construct: expressed in transfected cells; host or cells: HEK293
T1 sequence (Q8NFT2 1-490): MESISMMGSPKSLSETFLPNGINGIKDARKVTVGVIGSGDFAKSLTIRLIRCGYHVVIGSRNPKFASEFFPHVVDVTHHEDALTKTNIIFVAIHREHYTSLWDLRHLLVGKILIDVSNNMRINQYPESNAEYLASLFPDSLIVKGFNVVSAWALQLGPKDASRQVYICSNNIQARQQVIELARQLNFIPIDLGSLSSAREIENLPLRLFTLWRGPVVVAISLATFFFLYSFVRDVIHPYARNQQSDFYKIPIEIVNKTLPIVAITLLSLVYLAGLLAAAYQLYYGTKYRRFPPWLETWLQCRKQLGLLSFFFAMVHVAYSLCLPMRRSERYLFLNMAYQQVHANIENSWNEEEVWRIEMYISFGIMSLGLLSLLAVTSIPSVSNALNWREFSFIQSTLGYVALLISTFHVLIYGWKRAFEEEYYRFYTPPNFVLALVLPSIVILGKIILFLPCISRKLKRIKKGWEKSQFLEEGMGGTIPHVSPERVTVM
Experimental: (§3) Selected STEAP2 antibodies were then tested for binding to other human (h) STEAP family members (STEAP1, STEAP3, and STEAP4). To assess anti STEAP2 antibody specificity, plasmid constructs expressing hSTEAP1, hSTEAP2, hSTEAP3 or hSTEAP4 fused to Green Fluorescent Protein (GFP) were transiently introduced into HEK293 cells via lipofectamine 2000 based methodology. After 48 h, transiently transfected cells were stained with anti STEAP2 antibodies and imaged as described above for the internalization assay.

hSTEAP4 fused to GFP = molecular target: T2, hSTEAP4 fused to GFP (Homo sapiens, UniProt Q687X5); assay: Specificity: binding to HEK293 cells transfected with hSTEAP4-GFP; set-up: key: Wells with GFP positive cells that bound anti STEAP2 antibodies were scored as positive (+); those that did not bind anti STEAP2 antibodies were scored as negative (−); conditions: transient transfection, 48 h
T2 construct: expressed in transfected cells; host or cells: HEK293
T2 sequence (Q687X5 1-459): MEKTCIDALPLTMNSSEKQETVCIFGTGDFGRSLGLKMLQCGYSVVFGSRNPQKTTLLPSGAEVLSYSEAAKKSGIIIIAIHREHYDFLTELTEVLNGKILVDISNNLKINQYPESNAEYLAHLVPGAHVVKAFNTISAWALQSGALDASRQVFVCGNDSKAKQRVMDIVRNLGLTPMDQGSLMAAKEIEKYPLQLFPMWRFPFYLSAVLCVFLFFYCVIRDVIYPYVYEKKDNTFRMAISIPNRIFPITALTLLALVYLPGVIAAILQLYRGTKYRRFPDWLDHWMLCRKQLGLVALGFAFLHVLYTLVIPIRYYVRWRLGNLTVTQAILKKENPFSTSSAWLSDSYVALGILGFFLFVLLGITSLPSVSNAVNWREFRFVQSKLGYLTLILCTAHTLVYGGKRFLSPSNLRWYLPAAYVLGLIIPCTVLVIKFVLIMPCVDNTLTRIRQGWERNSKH
Experimental: as §3

hSTEAP1 fused to GFP = molecular target: T3, hSTEAP1 fused to GFP (Homo sapiens, UniProt Q9UHE8); assay: Specificity: binding to HEK293 cells transfected with hSTEAP1-GFP; set-up: key: Wells with GFP positive cells that bound anti STEAP2 antibodies were scored as positive (+); those that did not bind anti STEAP2 antibodies were scored as negative (−); conditions: transient transfection, 48 h
T3 construct: expressed in transfected cells; host or cells: HEK293
T3 sequence (Q9UHE8 whole entry, the tested form may be a part): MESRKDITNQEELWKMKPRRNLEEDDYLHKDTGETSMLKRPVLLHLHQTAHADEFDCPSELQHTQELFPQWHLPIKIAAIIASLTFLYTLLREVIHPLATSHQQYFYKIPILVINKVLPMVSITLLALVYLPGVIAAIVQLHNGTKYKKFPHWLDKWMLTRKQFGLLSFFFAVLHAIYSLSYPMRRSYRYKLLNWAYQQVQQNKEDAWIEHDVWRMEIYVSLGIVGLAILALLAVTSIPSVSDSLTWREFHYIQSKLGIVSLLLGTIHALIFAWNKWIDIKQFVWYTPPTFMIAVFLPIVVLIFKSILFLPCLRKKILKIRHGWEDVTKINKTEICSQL
Experimental: as §3

hSTEAP3 fused to GFP = molecular target: T4, hSTEAP3 fused to GFP (Homo sapiens, UniProt Q658P3); assay: Specificity: binding to HEK293 cells transfected with hSTEAP3-GFP; set-up: key: Wells with GFP positive cells that bound anti STEAP2 antibodies were scored as positive (+); those that did not bind anti STEAP2 antibodies were scored as negative (−); conditions: transient transfection, 48 h
T4 construct: expressed in transfected cells; host or cells: HEK293
T4 sequence (Q658P3 1-488): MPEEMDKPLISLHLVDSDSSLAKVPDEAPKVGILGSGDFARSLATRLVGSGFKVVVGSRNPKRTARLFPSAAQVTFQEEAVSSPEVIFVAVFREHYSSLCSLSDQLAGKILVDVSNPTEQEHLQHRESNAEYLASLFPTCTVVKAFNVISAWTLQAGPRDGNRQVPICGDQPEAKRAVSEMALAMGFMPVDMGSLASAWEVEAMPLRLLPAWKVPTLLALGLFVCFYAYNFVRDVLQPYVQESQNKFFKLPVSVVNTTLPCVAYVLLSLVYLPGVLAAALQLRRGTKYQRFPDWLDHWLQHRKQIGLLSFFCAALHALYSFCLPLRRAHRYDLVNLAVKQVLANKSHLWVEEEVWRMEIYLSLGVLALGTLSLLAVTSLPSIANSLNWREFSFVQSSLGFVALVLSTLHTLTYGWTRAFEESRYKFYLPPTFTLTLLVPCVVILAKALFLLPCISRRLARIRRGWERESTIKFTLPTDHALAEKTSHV
Experimental: as §3

[3] = test system: SKBR3 cells (STEAP2 negative); assay: FACS binding to STEAP2-negative SKBR3 cells; conditions: human-Fc antibodies
Experimental: as §1, §2

[4] = test system: C4-2 cells (high-STEAP2 expressing); assay: Internalization and total binding on C4-2 cells (imaging, qualitative score); format: cell-based, human; set-up: key: − (no internalization or binding); +(weak internalization or binding); ++(moderate internalization or binding); +++(robust internalization or binding); conditions: 10 μg/ml antibody
Experimental: Briefly, 20,000 C4-2 cells were seeded in PDL coated 96 well plates. The next day, cells were incubated with anti-human STEAP2 antibodies (10 μg/ml) for 30 min on ice followed by two PBS washes. Cells were then incubated with alexa488-conjugated anti-hFc Fab secondary antibody for 30 minutes on ice, followed by two additional PBS washes. Antibodies were allowed to internalize for 1 h at 37° C. in internalization buffer (PBS+2% FBS) or were maintained at 4° C. Cells were fixed in 4% formaldehyde, nuclei were stained with DRAQ5 (Cell signaling), and images were acquired on the ImageXpress micro XL (Molecular Devices).
A qualitative visual assessment of the total binding intensity and the intensity of antibodies that had internalized into vesicles was performed and scored according to the following criteria: − (no internalization or binding), +(weak internalization or binding), ++(moderate internalization or binding) and +++(robust internalization or binding).

Row | Molecule | Binding to hSTEAP2-GFP transfected HEK293 cells (hSTEAP2 fused to GFP) | Binding to hSTEAP4-GFP transfected HEK293 cells (hSTEAP4 fused to GFP) | Binding to hSTEAP1-GFP transfected HEK293 cells (hSTEAP1 fused to GFP) | Binding to hSTEAP3-GFP transfected HEK293 cells (hSTEAP3 fused to GFP) | Raji Avg F.A.B (Fold Above Background) [1] | FADU Avg F.A.B (Fold Above Background) [2] | SKBR3 Avg F.A.B (Fold Above Background) [3] | Internalization (37° C., 1 h) Qualitative Score [4] | Total Binding (4° C.) Qualitative Score [4]
1 | H1H7811N: human-Fc anti-STEAP2 antibody; variable regions presumably as H2M7811N (antibody, V domains shown) VH: QVQLVESGGGVVQPGRSLRLSCAVSGFTSSTYGMNWVRQAPGKGLEWVAVISFDGSNKYYADSVKGRFTISRDNSKNTLYLQMSSLRPEDTAVYYCARGRYFDLWGRGTLVTVSS VL: DTQMTQSPSTLSASVGDRVTITCRASQIISSWLAWYQQKPGKAPKLLIYKASSLASGVPSRFSGSGSGTEFTLTISSLQPDDFATYYCQQYKSYSYTFGQGTNLEIK |  |  |  |  | 4 fold | 3 fold |  |  | 
2 | H1M7814N: anti-STEAP2 antibody, mouse IgG1 Fc, HCVR/LCVR SEQ ID NOs 218/226 (antibody, V domains shown, mouse IgG1 Fc) VH: QVQLVESGGGVVQPGRSLRLSCVASGFTISSYGMNWVRQAPGKGLEWVAVISYDGGNKYSVDSVKGRFTISRDNSKNTLYLQMNSLRAEDSAVYYCARGRYFDLWGRGTLVTVSS VL: DIQMTQSPSTLSASVGDRVTITCRASQSISSWLAWYQQKPGRAPNLLISKASSLKSGVPSRFSGSGSGTEFTLTVSSLQPDDFATYYCQQYYSYSYTFGQGTKLEIK | + | − | − | − |  |  |  |  | 
3 | H2M7807N: anti-STEAP2 antibody, HCVR/LCVR SEQ ID NOs 314/322 (antibody, V domains shown) VH: QVQLVESGGGVVQPGRSLRLSCAVSGFTSSTYGMNWVRQAPGKGLEWVAVISYDGSNKYYADSVKGRFTISRDNSKNTLYLQMNSLRPEDTAVYYCARGRYFDLWGRGTLVTVSS VL: DIQMTQSPSTLSASVGDRVTITCRASQIISSWLAWYQQKPGKAPKLLIYKASSLASGVPSRFSGSGSGTEFTLTISSLQPDDFATYYCQQYKSYSYTFGQGTNLEIK | + | − | − | − |  |  |  |  | 
4 | H1H7809N: human-Fc anti-STEAP2 antibody, HCVR SEQ ID NO: 330 (antibody, V domains shown) VH: QVQLVESGGGVVQPGRSLGLSCAASGFTFSSYGMHWVRQAPGKGLEWVAVIWYDGSNKYYVDSVKGRFTISRDNSKNTLYLQMNSLRAEDTAVYYCAREGLRFLENYYYYYGMDVWGQGTTVTVSS VL: EIVLTQSPGTLSLSPGERATLSCRASQSISSTYLAWYQQRPGQAPRLLIYGASSRATGIPDRFSGSGSGTDFTLTISRLEPEDFAVYYCQQYGTSPYTFGQGTKLEIK |  |  |  |  | 3 fold | 21 fold | 37 fold |  | 
5 | H1H11162N: human-Fc anti-STEAP2 antibody, HCVR/LCVR SEQ ID NOs 250/258 (antibody, V domains shown, human Fc) VH: QVQLQQSGPGLVKPSQTLSLTCAISGDSVSSNRAAWNWIRQSPSRGLQWLGRTYYRSKWYNDYAVSLRSRITINPVTSKNQVALHMNSVTPEDTAVYYCARAGIVVVPGPETFYYYDHGLDVWGQGTTVTVSS VL: DIQMTQSPSSLSASVGDRVTITCRASQSIRSYLNWYQQKPGKAPELLIHAASSLQSGVPSRFSGSGSGTDFTLTISSLQPEDFASYYCQQSYSAPPITFGQGTRLEIK |  |  |  |  | 2 fold | 3 fold | 3 fold | +++ | +++

The next lines start with results.

Row | Binding to hSTEAP2-GFP transfected HEK293 cells (hSTEAP2 fused to GFP) | Binding to hSTEAP4-GFP transfected HEK293 cells (hSTEAP4 fused to GFP) | Binding to hSTEAP1-GFP transfected HEK293 cells (hSTEAP1 fused to GFP) | Binding to hSTEAP3-GFP transfected HEK293 cells (hSTEAP3 fused to GFP) | Molecule | Raji Avg F.A.B (Fold Above Background) [1] | FADU Avg F.A.B (Fold Above Background) [2] | SKBR3 Avg F.A.B (Fold Above Background) [3] | Internalization (37° C., 1 h) Qualitative Score [4] | Total Binding (4° C.) Qualitative Score [4]
6 | + | − | − | − | H2M7811N: anti-STEAP2 antibody, HCVR/LCVR SEQ ID NOs 362/370 (antibody, V domains shown) VH: QVQLVESGGGVVQPGRSLRLSCAVSGFTSSTYGMNWVRQAPGKGLEWVAVISFDGSNKYYADSVKGRFTISRDNSKNTLYLQMSSLRPEDTAVYYCARGRYFDLWGRGTLVTVSS VL: DTQMTQSPSTLSASVGDRVTITCRASQIISSWLAWYQQKPGKAPKLLIYKASSLASGVPSRFSGSGSGTEFTLTISSLQPDDFATYYCQQYKSYSYTFGQGTNLEIK |  |  |  |  | 
7 | + | − | − | − | H2M7810N: anti-STEAP2 antibody, HCVR/LCVR SEQ ID NOs 346/354 (antibody, V domains shown) VH: QVQLVESGGGVVQPGRSLRLSCAVSGFTSSTYGMNWVRQAPGKGLEWVAVISYDGSNKYYADSVKGRFTISRDNSKNTLYLQMNSLRPEDTAVYYCARGRYFDLWGRGTLVTVSS VL: DIQMTQSPSTLSASVGDRVTITCRASQIISSWLAWYQQKPGKAPKLLIYKASSLASGVPSRFSGSGSGTEFTLTISSLQPDDFATYYCQQYKSYSYTFGQGTKLEIK |  |  |  |  | 
